From publication doi:10.1101/2022.05.24.493321
Read-outs that look alike come from different tables or passages of the source.

Experiments:
MAX [1] = target: T1, MAX (Homo sapiens, UniProt P61244 1-160); test: MITOMI
Pho4 [2] = target: T2, Pho4 (S. cerevisiae, UniProt P07270 1-312); test: MITOMI
T2 sequence: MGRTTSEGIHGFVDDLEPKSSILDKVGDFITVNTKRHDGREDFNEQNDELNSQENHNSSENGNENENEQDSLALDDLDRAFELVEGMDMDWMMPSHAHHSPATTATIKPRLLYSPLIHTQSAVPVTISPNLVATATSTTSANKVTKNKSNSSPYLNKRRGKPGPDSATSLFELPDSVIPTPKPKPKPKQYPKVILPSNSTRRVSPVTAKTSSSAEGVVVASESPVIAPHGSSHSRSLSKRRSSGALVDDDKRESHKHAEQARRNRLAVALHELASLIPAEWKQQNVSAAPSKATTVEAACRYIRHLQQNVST

Pho4 [3] = target: T2, Pho4; test: STAMMP
MAX [4] = target: T1, MAX; test: MITOMI; remark: listed apart in the source

T1 sequence (P61244 whole entry): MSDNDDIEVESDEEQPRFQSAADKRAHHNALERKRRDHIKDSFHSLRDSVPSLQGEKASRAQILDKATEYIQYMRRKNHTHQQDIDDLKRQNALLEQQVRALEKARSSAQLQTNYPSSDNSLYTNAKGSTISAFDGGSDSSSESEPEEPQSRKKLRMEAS

B1: ATGC/ATGC 60bp (dsDNA)
DNA 1: CGCATGCATGCATGCATGCATGCATGCATGCATGCATGCATGCATGCATGCATGCATGCATGCGTCACGTGACGCATGCATGCATGCATGCATGCATGCATGCATGCATGCATGCATGCATGCATGCATGCATCGTCCGGCGGTATGAC
DNA 2: GTCATACCGCCGGACGATGCATGCATGCATGCATGCATGCATGCATGCATGCATGCATGCATGCATGCATGCATGCGTCACGTGACGCATGCATGCATGCATGCATGCATGCATGCATGCATGCATGCATGCATGCATGCATGCATGCG
MAX [1]
  binding result: binds
Pho4 [2]
  binding result: binds

B2: Motif + random 1 (dsDNA)
DNA 1: CGCACAGTCACTTAACGTCACGTGACCGGGGTATTTCAGGTCCGGCGGTATGAC
DNA 2: GTCATACCGCCGGACCTGAAATACCCCGGTCACGTGACGTTAAGTGACTGTGCG
Pho4 [3]
  binding result: binds

B3: GT/AC 15bp (dsDNA)
DNA 1: CGCCCCAGCACTGCCAAGCCGACGTTAAAACGGGTTGCTTCATCAATCTGTGTGTGTGTGTGTGTCACGTGACACACACACACACACATATCGGCACTTGCGCTTGAGTGCATCGAATAGTTCGGTTTATGAGCGTCCGGCGGTATGAC
DNA 2: GTCATACCGCCGGACGCTCATAAACCGAACTATTCGATGCACTCAAGCGCAAGTGCCGATATGTGTGTGTGTGTGTGTCACGTGACACACACACACACACAGATTGATGAAGCAACCCGTTTTAACGTCGGCTTGGCAGTGCTGGGGCG
MAX [4]
  binding result: binds
